Percent reduction of bacterial binding to B cells data for one substance are collected here from article PMC2799554.

The target of the test is Moraxella immunoglobulin (Ig) D binding protein (MID) of M. catarrhalis BBH18, on whole bacteria and on their outer membrane vesicles (OMV) (Moraxella catarrhalis). Nature of the test: flow cytometry on cells. Background: In flow cytometry, cells or beads pass a laser one at a time.

“human IgD, soluble, from serum (natural protein)” registered a percent reduction of bacterial binding to B cells at 150 µg/ml IgD of 40%.
